Test results as given in patent US20200207822A1, “PEPTIDE INHIBITORS OF INTERLEUKIN-23 RECEPTOR AND THEIR USE TO TREAT INFLAMMATORY DISEASES” (Protagonist Therapeutics, Inc., priority 2017, published 2020).
Positions of bridges follow the written chain, without caps; N, C: chain ends. Non-standard residues stand in square brackets, D forms with d. Groups on a side chain read outwards from the residue. 2Nal = N[C@@H](Cc1ccc2ccccc2c1)C(=O)O; AEF = NCCOc1ccc(C[C@H](N)C(=O)O)cc1; αMeL = CC(C)C[C@](C)(N)C(=O)O; Pen = CC(C)(S)[C@H](N)C(=O)O; dAbu = CC[C@@H](N)C(=O)O; Thp = NC1(C(=O)O)CCOCC1; Abu = CC[C@H](N)C(=O)O

T1: interleukin-23 receptor (IL-23R) (human, UniProt Q5VWK5 24-629)
T1 sequence (looked up): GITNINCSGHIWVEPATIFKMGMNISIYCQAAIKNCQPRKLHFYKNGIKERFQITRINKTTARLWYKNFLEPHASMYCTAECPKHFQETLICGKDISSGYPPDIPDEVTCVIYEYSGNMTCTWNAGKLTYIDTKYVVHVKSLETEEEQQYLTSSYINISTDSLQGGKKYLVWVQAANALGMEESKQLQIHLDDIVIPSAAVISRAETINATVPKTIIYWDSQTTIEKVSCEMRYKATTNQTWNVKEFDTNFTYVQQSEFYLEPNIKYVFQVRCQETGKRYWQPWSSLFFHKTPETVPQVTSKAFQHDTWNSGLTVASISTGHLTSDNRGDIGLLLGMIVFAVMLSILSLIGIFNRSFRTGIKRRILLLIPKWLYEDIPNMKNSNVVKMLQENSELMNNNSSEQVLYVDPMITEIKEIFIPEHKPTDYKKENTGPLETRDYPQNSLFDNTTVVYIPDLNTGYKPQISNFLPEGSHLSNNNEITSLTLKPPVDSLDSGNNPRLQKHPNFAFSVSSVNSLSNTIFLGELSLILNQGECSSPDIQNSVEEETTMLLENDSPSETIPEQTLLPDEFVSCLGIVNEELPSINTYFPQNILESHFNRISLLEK

B1: SEQ ID NO 218 (peptide)
peptide: XNTWKXXXXKNNX
modifications: Ac-[Pen]-NTW-[Lys(Ac)]-[Pen]-[Phe[4-(2-aminoethoxy)]-[2-Nal]-[α-MeLeu]-[Lys(Ac-(D)Asn)]-NN-[(D)Ile]-NH2
B2: SEQ ID NO 197 (peptide)
peptide: XNTWKXXXXKNNX
modifications: Ac-[Pen]-NTW-[Lys(Ac)]-[Pen]-[Phe[4-(2-aminoethoxy)]-[2-Nal]-[α-MeLeu]-[Lys(Ac)]-NN-[Ahx]-NH2
B3: SEQ ID NO 175 (peptide)
peptide: XNTWQXXXXKNNX
modifications: Ac-[Pen]-NTWQ-[Pen]-[Phe[4-(2-aminoethoxy)]-[2-Nal]-[α-MeLeu]-[Lys(Ac)]-NN-[(D)Ile]-NH2
B4: SEQ ID NO 184 (peptide)
peptide: XNTWQXXXXKNNX
modifications: (Ac-[Pen]-NTWQ-[Pen]-[Phe(4-CONH2)]-[2-Nal]-[α-MeLeu]-[Lys(Ac)]-NN-[(D)Lys]-NH2)2-DIG
B5: SEQ ID NO 174 (peptide)
peptide: XNTWQXXXXKNNX
modifications: Ac-[Pen]-NTWQ-[Pen]-[Phe[4-(2-aminoethoxy)]-[2-Nal]-[α-MeLeu]-[Lys(Ac)]-NN-[(D)Arg]-NH2
B6: SEQ ID NO 170 (peptide)
peptide: XNTWKXXXXKNN
modifications: Ac-[Pen]-NTW-[Lys(Ac)]-[Pen]-[Phe[4-(2-aminoethoxy)]-[2-Nal]-[α-MeLeu]-[Lys(Ac)]-NN-NH2
B7: SEQ ID NO 153 (peptide)
peptide: XXQTWKCXXXENN
modifications: Ac-[(D)Arg]-cyclo[[Abu]-QTW-Lys(isoGlu-Palm)-C]-[Phe[4-(2-aminoethoxy)]-[2-Nal]-[4-amino-4-carboxy-tetrahydropyran]-ENN-NH2
B8: SEQ ID NO 195 (peptide)
peptide: XNTWKXXXXKNNG
modifications: Ac-[Pen]-NTW-[Lys(Ac)]-[Pen]-[Phe[4-(2-aminoethoxy)]-[2-Nal]-[α-MeLeu]-[Lys(Ac)]-NNG-NH2
B9: SEQ ID NO 138 (peptide)
peptide: XXQTWQCXXXENN
modifications: Ac-[(D)Arg]-cyclo[[Abu]-QTWQC]-[Phe[4-(2-aminoethoxy)]-[2-Nal]-[α-MeLeu]-ENN-NH2
B10: SEQ ID NO 147 (peptide)
peptide: XXQTWQCXXXENN
modifications: Ac-[(D)Arg]-cyclo[[Abu]-QTWQC]-[Phe[4-(2-aminoethoxy)]-[2-Nal]-[3-cyclohexyl-Ala]-ENN-NH2
B11: SEQ ID NO 198 (peptide)
peptide: XNTWKXXXXKNNX
modifications: Ac-[Pen]-NTW-[Lys(Ac)]-[Pen]-[Phe[4-(2-aminoethoxy)]-[2-Nal]-[α-MeLeu]-[Lys(Ac)]-NN-[Sar]-NH2
B12: SEQ ID NO 196 (peptide)
peptide: XNTWKXXXXKNNX
modifications: Ac-[Pen]-NTW-[Lys(Ac)]-[Pen]-[Phe[4-(2-aminoethoxy)]-[2-Nal]-[α-MeLeu]-[Lys(Ac)]-NN-[β-Ala]-NH2
B13: SEQ ID NO 177 (peptide)
peptide: XNTWQXXXXKNNX
modifications: Ac-[Pen]-NTWQ-[Pen]-[Phe[4-(2-aminoethoxy)]-[2-Nal]-[α-MeLeu]-[Lys(Ac)]-NN-[(D)Gln]-NH2

target: T1, interleukin-23 receptor (IL-23R); assay: cell-based or functional assay; details: not given

IC50, pStat3 HTRF (nM), < 1 nM:
Ac-[dK]([Arg-Ac])[Pen]NTWK(Ac)[Pen][AEF][2Nal][αMeL]K(Ac)NN-NH2 (disulfide 2-7 (inferred)) [SEQ ID NO 234]
B1
Ac-K([Ser-Ac])[Pen]NTWK(Ac)[Pen][AEF][2Nal][αMeL]K(Ac)NN-NH2 (disulfide 2-7 (inferred)) [SEQ ID NO 226]
B2
Ac-K([Tyr-Ac])[Pen]NTWK(Ac)[Pen][AEF][2Nal][αMeL]K(Ac)NN-NH2 (disulfide 2-7 (inferred)) [SEQ ID NO 225]
B3
Ac-[dK]([Phe-Ac])[Pen]NTWK(Ac)[Pen][AEF][2Nal][αMeL]K(Ac)NN-NH2 (disulfide 2-7 (inferred)) [SEQ ID NO 231]
Ac-K([Phe-Ac])[Pen]NTWK(Ac)[Pen][AEF][2Nal][αMeL]K(Ac)NN-NH2 (disulfide 2-7 (inferred)) [SEQ ID NO 224]
Ac-[dK]([Tyr-Ac])[Pen]NTWK(Ac)[Pen][AEF][2Nal][αMeL]K(Ac)NN-NH2 (disulfide 2-7 (inferred)) [SEQ ID NO 232]
Ac-K([Pro-Ac])[Pen]NTWK(Ac)[Pen][AEF][2Nal][αMeL]K(Ac)NN-NH2 (disulfide 2-7 (inferred)) [SEQ ID NO 229]
B4
XNTWQXXXXKNNQ (Ac-[Pen]-NTWQ-[Pen]-[Phe[4-(2-aminoethoxy)]-[2-Nal]-[α-MeLeu]-[Lys(Ac)]-NNQ-NH2) [SEQ ID NO 164]
B5
B6
Ac-[dK]([Glu-Ac])[Pen]NTWK(Ac)[Pen][AEF][2Nal][αMeL]K(Ac)NN-NH2 (disulfide 2-7 (inferred)) [SEQ ID NO 230]
Ac-K([Glu-Ac])[Pen]NTWK(Ac)[Pen][AEF][2Nal][αMeL]K(Ac)NN-NH2 (disulfide 2-7 (inferred)) [SEQ ID NO 223]
Ac-[dK]([Leu-Ac])[Pen]NTWK(Ac)[Pen][AEF][2Nal][αMeL]K(Ac)NN-NH2 (disulfide 2-7 (inferred)) [SEQ ID NO 235]
XNTWQXXXXKNNR (Ac-[Pen]-NTWQ-[Pen]-[Phe[4-(2-aminoethoxy)]-[2-Nal]-[α-MeLeu]-[Lys(Ac)]-NNR-NH2) [SEQ ID NO 161]
B8
B9
Ac-K([Arg-Ac])[Pen]NTWK(Ac)[Pen][AEF][2Nal][αMeL]K(Ac)NN-NH2 (disulfide 2-7 (inferred)) [SEQ ID NO 227]
Ac-[dK]([Ser-Ac])[Pen]NTWK(Ac)[Pen][AEF][2Nal][αMeL]K(Ac)NN-NH2 (disulfide 2-7 (inferred)) [SEQ ID NO 233]
B10
B11
XXQTWQCXXXENN (Ac-[(D)Arg]-cyclo[[Abu]-QTWQC]-[Phe[4-(2-aminoethoxy)]-[2-Nal]-[Aib]-ENN-NH2) [SEQ ID NO 148]
B12
XNTWQXXXXKNNS (Ac-[Pen]-NTWQ-[Pen]-[Phe[4-(2-aminoethoxy)]-[2-Nal]-[α-MeLeu]-[Lys(Ac)]-NNS-NH2) [SEQ ID NO 165]
B13
Ac-[dK]([Pro-Ac])[Pen]NTWK(Ac)[Pen][AEF][2Nal][αMeL]K(Ac)NN-NH2 (disulfide 2-7 (inferred)) [SEQ ID NO 236]
Ac-K([Leu-Ac])[Pen]NTWK(Ac)[Pen][AEF][2Nal][αMeL]K(Ac)NN-NH2 (disulfide 2-7 (inferred)) [SEQ ID NO 228]
XNTWQXXXXKNNY (Ac-[Pen]-NTWQ-[Pen]-[Phe[4-(2-aminoethoxy)]-[2-Nal]-[α-MeLeu]-[Lys(Ac)]-NNY-NH2) [SEQ ID NO 159]

IC50, pStat3 HTRF (nM), > 100 nM:
B7
Ac-[Pen]NTWQ[dAbu][AEF][2Nal][αMeL]K(Ac)NN-NH2 (thioether 1-6) [SEQ ID NO 137]

system: IL-23R-expressing DB cells stimulated with IL-23 (pSTAT3 levels); assay: DB cells IL23R pSTAT3 cell assay (Cisbio HTRF pSTAT3); assay type: cell-based, human; details: Table E1, Pen-Pen disulfide peptides, IL-23 0.5 nM, 30 minutes at 37° C.
Description: Human ELISA indicates the IL23-IL23R competitive binding assay described below, Rat ELISA indicates the rat IL-23R competitive binding ELISA assay described below, and pStat3HTRF indicates the DB cells IL-23R pSTAT3 cell assay described below. The peptides depicted in Table E1 are cyclized via a disulfide bridge formed between two Pen residues in these peptides. The peptides depicted in Table E2 are cyclized via a thioether bond between the indicated amino acid residues. Table E2 provides an illustrative structure depicting thioether cyclization, which is indicated in the table by the term “cyclo,” with the cyclic region bracketed immediately following the term “cyclo.” For certain peptides, the residue Abu is present where indicated, whereas in other embodiments, e.g., those related to the non-cyclized form, the Abu may be referred to as a hSer(Cl) or homoSer residue.
DB Cells IL23R pSTAT3 Cell Assay
IL-23 plays a central role in supporting and maintaining Th17 differentiation in vivo. […] This cell assay examines the levels of pSTAT3 in IL-23R-expressing DB cells when stimulated with IL-23 in the presence of test compounds.

IC50, 1 to 10 nM:
8 (Ac-[Pen]NTWQ[Pen][AEF]W[Thp]K(Ac)NN-NH2; disulfide 1-6 (inferred)) [compound 8]

same assay, conditions: Table E2, thioether peptides, IL-23 0.5 nM, 30 minutes at 37° C.

IC50, 1 to 10 nM:
73 (XXQTWQCXXXEND; MOD_RES (1)..(1) D-form arginine; MOD_RES (2)..(2) Abu; (2)..(7) residues cyclosized; MOD_RES (8)..(8) 4-(2-aminoethoxy)-L-phenylalanine; MOD_RES (9)..(9) L-2-Napthylalanine; MOD_RES (10)..(10) 4-amino-4-carboxy-tetrahydropyran) [compound 73]
75 (XXQTWECXXXENN; MOD_RES (1)..(1) D-form arginine; MOD_RES (2)..(2) Abu; (2)..(7) residues cyclosized; MOD_RES (8)..(8) 4-(2-aminoethoxy)-L-phenylalanine; MOD_RES (9)..(9) L-2-Napthylalanine; MOD_RES (10)..(10) 4-amino-4-carboxy-tetrahydropyran) [compound 75]
78 (Ac-[dR][Abu]QTWEC[AEF][2Nal][Thp]END-NH2; thioether 2-7) [compound 78]
79 (Ac-[dR][Abu]ETWQC[AEF][2Nal][Thp]END-NH2; thioether 2-7) [compound 79]

IC50, 10 to 100 nM:
74 (XXQTWQCXXXEDN; MOD_RES (1)..(1) D-form arginine; MOD_RES (2)..(2) Abu; (2)..(7) residues cyclosized; MOD_RES (8)..(8) 4-(2-aminoethoxy)-L-phenylalanine; MOD_RES (9)..(9) L-2-Napthylalanine; MOD_RES (10)..(10) 4-amino-4-carboxy-tetrahydropyran) [compound 74]
77 (Ac-[dR][Abu]QTWQC[AEF][2Nal][Thp]EDD-NH2; thioether 2-7) [compound 77]
80 (Ac-[dR][Abu]QTWEC[AEF][2Nal][Thp]EDN-NH2; thioether 2-7) [compound 80]
81 (Ac-[dR][Abu]ETWQC[AEF][2Nal][Thp]EDN-NH2; thioether 2-7) [compound 81]
